Laboratory results reported in PMC12257531, “Chaperone-Mediated Regulation of Tau Phase Separation, Fibrillation, and Toxicity” (Journal of the American Chemical Society, 2025).

Biological target: Tau441 (recombinant full-length Tau protein), monomeric (UniProt P10636-8 1-441)
Test: cell-based or functional assay

Chain of Tau441 (recombinant full-length Tau protein), monomeric (P10636 other isoform, or with tags, fused parts or gaps): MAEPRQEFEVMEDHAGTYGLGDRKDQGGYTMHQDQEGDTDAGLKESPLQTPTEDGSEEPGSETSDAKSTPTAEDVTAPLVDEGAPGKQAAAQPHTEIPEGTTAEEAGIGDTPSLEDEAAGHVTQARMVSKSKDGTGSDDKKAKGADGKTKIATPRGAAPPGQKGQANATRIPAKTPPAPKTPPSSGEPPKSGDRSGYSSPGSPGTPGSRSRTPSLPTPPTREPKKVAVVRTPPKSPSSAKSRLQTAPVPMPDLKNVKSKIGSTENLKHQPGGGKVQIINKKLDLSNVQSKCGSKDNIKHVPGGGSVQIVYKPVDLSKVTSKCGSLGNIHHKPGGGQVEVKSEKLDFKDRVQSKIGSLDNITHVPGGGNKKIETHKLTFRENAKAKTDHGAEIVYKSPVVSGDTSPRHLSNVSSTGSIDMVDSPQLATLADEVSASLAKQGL

turbidity (absorbance at 350 nm) of 20 uM Tau441 with 8% PEG8000 and sub- to superstoichiometric Bri2 BRICHOS, relative to Tau441 droplets alone: 2 fold
B1: Bri2 BRICHOS domain R221E (residues 113-231 of Bri2), oligomeric fraction (domain or fragment, human)
chain: GSQTIEENIKIFEEEEVEFISVPVPEFADSDPANIVHDFNKKLTAYLDLNLDKCYVIPLNTSIVMPPRNLLELLINIKAGTYLPQSYLIHEHMVITDRIENIDHLGFFIYELCHDKETYKL
